Measured values taken from the supplement of paper PMC11316812.
± gives the standard deviation of the averaged measurements.

Key:
hTERT-HMEC = assay: percentage of EdU-negative (G0-arrested) nuclei per well, 72 h; higher = more G0 arrest; settings: reference: sequence is the full UniProt precursor, the tested protein was the secreted form or ectodomain
MCF7 = assay: as above; settings: reference: sequence is the full UniProt precursor, the tested protein was the secreted form or ectodomain
[1] = protein concentration 0.00625 µM
[2] = protein concentration 0.0625 µM
[3] = protein concentration 0.0225 µM
[4] = protein concentration 0.02225 µM
[5] = protein concentration 0.2225 µM
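Also: secreted proteins added to cultured cells, EdU pulse at the end, nuclei found by Hoechst imaging, EdU status from nuclear versus surrounding ring intensity ratio, PBS as neutral control.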

Row | Sequence | percentage of EdU-negative (hTERT-HMEC; [3]) [%] | percentage of EdU-negative (hTERT-HMEC; protein concentration 0.225 µM) [%] | percentage of EdU-negative (MCF7; [3]) [%] | percentage of EdU-negative (MCF7; protein concentration 0.225 µM) [%] | further results
1 | MGKSESQMDITDINTPKPKKKQRWTPLEISLSVLVLLLTIIAVTMIALYATYDDGICKSSDCIKSAARLIQNMDATTEPCTDFFKYACGGWLKRNVIPETSSRYGNFDILRDELEVVLKDVLQEPKTEDIVAVQKAKALYRSCINESAIDSRGGEPLLKLLPDIYGWPVATENWEQKYGASWTAEKAIAQLNSKYGKKVLINLFVGTDDKNSVNHVIHIDQPRLGLPSRDYYECTGIYKEACTAYVDFMISVARLIRQEERLPIDENQLALEMNKVMELEKEIANATAKPEDRNDPMLLYNKMTLAQIQNNFSLEINGKPFSWLNFTNEIMSTVNISITNEEDVVVYAPEYLTKLKPILTKYSARDLQNLMSWRFIMDLVSSLSRTYKESRNAFRKALYGTTSETATWRRCANYVNGNMENAVGRLYVEAAFAGESKHVVEDLIAQIREVFIQTLDDLTWMDAETKKRAEEKALAIKERIGYPDDIVSNDNKLNNEYLELNYKEDEYFENIIQNLKFSQSKQLKKLREKVDKDEWISGAAVVNAFYSSGRNQIVFPAGILQPPFFSAQQSNSLNYGGIGMVIGHEITHGFDDNGRNFNKDGDLVDWWTQQSASNFKEQSQCMVYQYGNFSWDLAGGQHLNGINTLGENIADNGGLGQAYRAYQNYIKKNGEEKLLPGLDLNHKQLFFLNFAQVWCGTYRPEYAVNSIKTDVHSPGNFRIIGTLQNSAEFSEAFHCRKNSYMNPEKKCRVW |  |  |  |  | percentage of EdU-negative (hTERT-HMEC; [1]): 4.08 ± 0.18%; percentage of EdU-negative (hTERT-HMEC; [2]): 5.51 ± 0.24%; percentage of EdU-negative (MCF7; [1]): 25 ± 1.8%; percentage of EdU-negative (MCF7; [2]): 27.41 ± 0.064%
2 | MGLEKPQSKLEGGMHPQLIPSVIAVVFILLLSVCFIASCLVTHHNFSRCKRGTGVHKLEHHAKLKCIKEKSELKSAEGSTWNCCPIDWRAFQSNCYFPLTDNKTWAESERNCSGMGAHLMTISTEAEQNFIIQFLDRRLSYFLGLRDENAKGQWRWVDQTPFNPRRVFWHKNEPDNSQGENCVVLVYNQDKWAWNDVPCNFEASRICKIPGTTLN [Q8WXI8] | 6.12 ± 0.23 | 6.07 ± 0.51 | 23.5 ± 0.48 | 25.2 ± 0.46 | 
3 | MGLFRGFVFLLVLCLLHQSNTSFIKLNNNGFEDIVIVIDPSVPEDEKIIEQIEDMVTTASTYLFEATEKRFFFKNVSILIPENWKENPQYKRPKHENHKHADVIVAPPTLPGRDEPYTKQFTECGEKGEYIHFTPDLLLGKKQNEYGPPGKLFVHEWAHLRWGVFDEYNEDQPFYRAKSKKIEATRCSAGISGRNRVYKCQGGSCLSRACRIDSTTKLYGKDCQFFPDKVQTEKASIMFMQSIDSVVEFCNEKTHNQEAPSLQNIKCNFRSTWEVISNSEDFKNTIPMVTPPPPPVFSLLKISQRIVCLVLDKSGSMGGKDRLNRMNQAAKHFLLQTVENGSWVGMVHFDSTATIVNKLIQIKSSDERNTLMAGLPTYPLGGTSICSGIKYAFQVIGELHSQLDGSEVLLLTDGEDNTASSCIDEVKQSGAIVHFIALGRAADEAVIEMSKITGGSHFYVSDEAQNNGLIDAFGALTSGNTDLSQKSLQLESKGLTLNSNAWMNDTVIIDSTVGKDTFFLITWNSLPPSISLWDPSGTIMENFTVDATSKMAYLSIPGTAKVGTWAYNLQAKANPETLTITVTSRAANSSVPPITVNAKMNKDVNSFPSPMIVYAEILQGYVPVLGANVTAFIESQNGHTEVLELLDNGAGADSFKNDGVYSRYFTAYTENGRYSLKVRAHGGANTARLKLRPPLNRAAYIPGWVVNGEIEANPPRPEIDEDTQTTLEDFSRTASGGAFVVSQVPSLPLPDQYPPSQITDLDATVHEDKIILTWTAPGDNFDVGKVQRYIIRISASILDLRDSFDDALQVNTTDLSPKEANSKESFAFKPENISEENATHIFIAIKSIDKSNLTSKVSNIAQVTLFIPQANPDDIDPTPTPTPTPTPDKSHNSGVNISTLVLSVIGSVVIVNFILSTTI [Q14CN2] | 6.239 ± 0.015 | 66 ± 6.4 | 26.84 ± 0.26 | 30.6 ± 2 | 
4 | MGLGPVFLLLAGIFPFAPPGAAAEPHSLRYNLTVLSWDGSVQSGFLTEVHLDGQPFLRCDRQKCRAKPQGQWAEDVLGNKTWDRETRDLTGNGKDLRMTLAHIKDQKEGLHSLQEIRVCEIHEDNSTRSSQHFYYDGELFLSQNLETKEWTMPQSSRAQTLAMNVRNFLKEDAMKTKTHYHAMHADCLQELRRYLKSGVVLRRTVPPMVNVTRSEASEGNITVTCRASGFYPWNITLSWRQDGVSLSHDTQQWGDVLPDGNGTYQTWVATRICQGEEQRFTCYMEHSGNHSTHPVPSGKVLVLQSHWQTFHVSAVAAAAIFVIIIFYVRCCKKKTSAAEGPELVSLQVLDQHPVGTSDHRDATQLGFQPLMSDLGSTGSTEGA |  |  |  |  | percentage of EdU-negative (hTERT-HMEC; [4]): 5.41 ± 0.075%; percentage of EdU-negative (hTERT-HMEC; [5]): 6.78 ± 1.8%; percentage of EdU-negative (MCF7; [4]): 24.7 ± 0.99%; percentage of EdU-negative (MCF7; [5]): 26.3 ± 1.6%
